Consider one substance from paper doi:10.1101/2021.04.15.439997.

Test [1] has as its target Strep-tagged glucose-6-phosphate dehydrogenase (G6PDH) from Synechocystis (Synechocystis sp. PCC 6803) (UniProt P73411).
Test [2] has the same target. In words: SEC-MALS. A general note: In gel filtration, larger molecules generally elute earlier.

Strep-tagged glucose-6-phosphate dehydrogenase (G6PDH) from Synechocystis (Synechocystis sp. PCC 6803), sequence (P73411 whole entry): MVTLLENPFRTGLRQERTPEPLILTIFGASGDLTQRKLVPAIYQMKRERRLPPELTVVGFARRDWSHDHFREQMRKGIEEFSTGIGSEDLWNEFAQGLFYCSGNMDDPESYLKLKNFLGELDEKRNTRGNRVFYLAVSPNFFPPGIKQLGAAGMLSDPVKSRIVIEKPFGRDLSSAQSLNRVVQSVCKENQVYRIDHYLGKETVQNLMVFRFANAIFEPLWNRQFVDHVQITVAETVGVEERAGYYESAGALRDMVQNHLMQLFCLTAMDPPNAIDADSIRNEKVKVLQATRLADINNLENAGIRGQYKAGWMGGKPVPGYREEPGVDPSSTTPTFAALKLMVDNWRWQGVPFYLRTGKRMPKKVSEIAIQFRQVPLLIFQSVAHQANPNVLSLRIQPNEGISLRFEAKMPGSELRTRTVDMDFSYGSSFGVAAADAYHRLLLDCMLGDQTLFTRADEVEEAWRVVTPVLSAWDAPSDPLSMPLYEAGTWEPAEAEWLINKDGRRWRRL

In test [1], “Strep-tagged oxidative pentose phosphate cycle protein (OpcA) from Synechocystis (natural protein)” came in with a G6PDH activity after pre-incubation of OpcA with DTTred, compared to the control of 30%; a G6PDH activity after pre-incubation of OpcA with Synechocystis thioredoxin TxrA of 10%; a G6PDH enzyme kinetics: substrate affinity with OpcA added of 6 fold. For the same substance, the stoichiometry N (subunits of OpcA per G6PDH tetramer) in test [2] was determined as 4.
